Residue numbers refer to the chain shown, from its start. A value given as a limit tells only on which side of the number the result lay.

Data set [1] deals with T1, BbsI P442A (subunit B variant) P442A (subunit B) (Brevibacillus laterosporus).
T1 sequence 1: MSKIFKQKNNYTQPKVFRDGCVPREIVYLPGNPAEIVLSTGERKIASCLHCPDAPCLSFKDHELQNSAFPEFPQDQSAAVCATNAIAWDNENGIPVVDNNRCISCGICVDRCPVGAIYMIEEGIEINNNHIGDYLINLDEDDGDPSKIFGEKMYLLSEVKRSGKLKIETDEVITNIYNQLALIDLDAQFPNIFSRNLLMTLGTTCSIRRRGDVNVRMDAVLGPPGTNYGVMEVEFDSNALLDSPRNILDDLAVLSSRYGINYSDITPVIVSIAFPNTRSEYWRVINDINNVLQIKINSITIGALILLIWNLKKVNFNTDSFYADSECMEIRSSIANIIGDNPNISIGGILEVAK
T1 sequence 2: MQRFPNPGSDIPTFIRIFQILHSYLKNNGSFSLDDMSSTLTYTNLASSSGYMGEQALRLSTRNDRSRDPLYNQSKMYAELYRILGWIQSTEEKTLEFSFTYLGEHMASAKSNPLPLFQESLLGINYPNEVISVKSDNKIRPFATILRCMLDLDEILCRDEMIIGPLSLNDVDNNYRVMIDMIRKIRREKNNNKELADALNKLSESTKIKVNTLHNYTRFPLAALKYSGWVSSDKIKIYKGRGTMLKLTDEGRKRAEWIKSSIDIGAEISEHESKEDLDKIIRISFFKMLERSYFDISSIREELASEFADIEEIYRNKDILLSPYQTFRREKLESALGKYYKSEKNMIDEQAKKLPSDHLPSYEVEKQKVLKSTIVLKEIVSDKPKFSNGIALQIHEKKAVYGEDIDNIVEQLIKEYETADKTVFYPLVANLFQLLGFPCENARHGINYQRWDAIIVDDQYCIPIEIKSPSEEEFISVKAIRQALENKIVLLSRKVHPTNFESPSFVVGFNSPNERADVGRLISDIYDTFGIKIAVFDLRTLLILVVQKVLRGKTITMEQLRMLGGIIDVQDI
Kind of data set: cleavage_in_vitro. Conditions: NEB4 buffer, relative activity 1; FI>=120 in NEB1 (1/4), >=32 in NEB2 (1/16), >=2 in NEB3 (1/256); reduced star activity.

The subject of data set [2] is T2, BbsI wild type (subunits A and B) (Brevibacillus laterosporus).
T2 sequence 1: T1 sequence 1
T2 sequence 2: T1 sequence 2 with A442P
The data set can be described thus: cleavage_in_vitro. The conditions noted are these: NEB4 buffer, relative activity 1; FI=32 in NEB1 (1/2), 120 in NEB2 (1), 64 in NEB3 (1/4); substrate sequence not stated.

For “DNA substrate containing BbsI recognition site”, the activity (fidelity index) in data set [1] is over 500; in data set [2], 64.

(Values after patent US9988614.)
